In publication PMC5087801:

Biological target: fluorescein-labeled HMGB1 (full-length) (rat) (UniProt P63159)
Assay: fluorescence polarisation

Chain of UniProt P63159 (P63159 whole entry): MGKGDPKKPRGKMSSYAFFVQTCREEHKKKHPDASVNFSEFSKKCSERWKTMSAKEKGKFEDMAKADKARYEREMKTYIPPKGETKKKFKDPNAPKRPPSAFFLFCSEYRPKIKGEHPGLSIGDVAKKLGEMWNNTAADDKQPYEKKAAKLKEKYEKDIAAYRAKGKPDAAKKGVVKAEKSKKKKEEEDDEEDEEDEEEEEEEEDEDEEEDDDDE

Q: “Danio rerio TLR5-N14VLR (drTLR5) (receptor)” was tested. Which Kd did it give?
A: The Kd was 2.9 µM.
